Data from the Immune Epitope Database (IEDB).

Experiments:
HLA-A*01:01 = test: IEDB peptide-MHC binding, purified MHC/direct/fluorescence; filed as Kd, often an IC50 or EC50 that approximates it; ≥ and ≤ were set here for values at or beyond the usual limits of such assays
HLA-B*46:01 [1] = test: as above
HLA-B*18:01 [2] = test: as above
HLA-B*15:09 = test: as above
HLA-B*40:01 = test: as above
HLA-B*27:05 = test: as above
HLA-B*07:02 = test: as above; conditions: source organism: Influenza A virus (A/quail/Hong Kong/FY298/00(H9N2))
HLA-B*08:01 = test: as above; conditions: source organism: Influenza A virus (A/quail/Hong Kong/FY298/00(H9N2))
HLA-A*69:01 [3] = test: as above
HLA-A*03:01 [4] = test: as above
HLA-B*44:02 = test: as above
HLA-B*15:01 [5] = test: as above
HLA-A*02:01 [6] = test: as above
HLA-A*24:02 = test: as above; conditions: source organism: Influenza A virus (A/quail/Hong Kong/FY298/00(H9N2))
HLA-B*58:01 = test: as above
HLA-B*46:01 [7] = test: IEDB peptide-MHC binding, purified MHC/competitive/fluorescence; filed as Kd, often an IC50 or EC50 that approximates it; ≥ and ≤ were set here for values at or beyond the usual limits of such assays
HLA-B*18:01 [8] = test: as above
HLA-B*57:01 [9] = test: as above
HLA-A*02:11 [10] = test: as above
HLA-B*27:03 = test: as above
HLA-B*15:17 = test: as above
HLA-A*24:03 = test: as above
HLA-A*23:01 [11] = test: as above; conditions: source organism: Salmonella enterica subsp. enterica serovar Typhimurium str. LT2
HLA-A*02:12 [12] = test: as above; conditions: source organism: Salmonella enterica subsp. enterica serovar Typhimurium str. LT2
HLA-A*69:01 [13] = test: as above
HLA-B*51:01 = test: as above
HLA-A*02:19 [14] = test: as above; conditions: source organism: Salmonella enterica subsp. enterica serovar Typhimurium str. LT2
HLA-A*03:01 [15] = test: as above; conditions: source organism: Salmonella enterica subsp. enterica serovar Typhimurium str. LT2
HLA-B*15:01 [16] = test: as above; conditions: source organism: Salmonella enterica subsp. enterica serovar Typhimurium str. LT2
HLA-B*39:01 = test: as above
HLA-A*26:01 = test: as above
HLA-A*29:02 [17] = test: as above; conditions: source organism: Salmonella enterica subsp. enterica serovar Typhimurium str. LT2
HLA-B*57:01 [18] = test: IEDB peptide-MHC binding, purified MHC/direct/fluorescence; filed as Kd, often an IC50 or EC50 that approximates it; ≥ and ≤ were set here for values at or beyond the usual limits of such assays; conditions: source organism: Yellow fever virus 17D
HLA-A*11:01 = test: as above; conditions: source organism: Yellow fever virus 17D
HLA-A*31:01 = test: as above; conditions: source organism: Yellow fever virus 17D
HLA-B*48:01 = test: as above; conditions: source organism: Yellow fever virus 17D
HLA-A*02:01 [19] = test: IEDB peptide-MHC binding, purified MHC/competitive/fluorescence; filed as Kd, often an IC50 or EC50 that approximates it; ≥ and ≤ were set here for values at or beyond the usual limits of such assays
HLA-A*02:16 = test: IEDB peptide-MHC binding, purified MHC/direct/fluorescence; filed as Kd, often an IC50 or EC50 that approximates it; ≥ and ≤ were set here for values at or beyond the usual limits of such assays; conditions: source organism: Convict Creek 107 virus
HLA-A*02:11 [20] = test: as above; conditions: source organism: Convict Creek 107 virus
HLA-A*23:01 [21] = test: as above; conditions: source organism: Convict Creek 107 virus
HLA-A*02:03 = test: as above; conditions: source organism: Convict Creek 107 virus
HLA-A*02:12 [22] = test: as above; conditions: source organism: Convict Creek 107 virus
HLA-A*02:19 [23] = test: as above; conditions: source organism: Convict Creek 107 virus
HLA-A*68:02 = test: as above; conditions: source organism: Convict Creek 107 virus
HLA-A*29:02 [24] = test: as above; conditions: source organism: Convict Creek 107 virus
[25] = source organism: Influenza A virus (A/quail/Hong Kong/FY298/00(H9N2))
[26] = source organism: Salmonella enterica subsp. enterica serovar Typhimurium str. LT2
[27] = source organism: Yellow fever virus 17D
[28] = source organism: Bradyrhizobium diazoefficiens
[29] = source organism: Orthohantavirus sinnombreense

ALTLNTMTK was tested, and the Kd (HLA-A*01:01; [25]) was ≥ 20 µM, the Kd (HLA-B*46:01 [1]; [25]) was ≥ 20 µM and the Kd (HLA-B*18:01 [2]; [25]) was ≥ 20 µM. The Kd (HLA-B*15:09; source organism: Influenza A virus(A/swine/Henan/5/2004(H9N2))) was ≥ 20 µM, the Kd (HLA-B*40:01; [25]) was ≥ 20 µM and the Kd (HLA-B*27:05; [25]) was ≥ 20 µM. For the same sequence, the Kd (HLA-B*07:02) was ≥ 20 µM, the Kd (HLA-B*08:01) was ≥ 20 µM and the Kd (HLA-A*69:01 [3]; [25]) was ≥ 20 µM. For the same sequence, the Kd (HLA-A*03:01 [4]; source organism: Influenza A virus (A/Puerto Rico/8/34/Mount Sinai(H1N1))) was 0.724 µM, the Kd (HLA-B*44:02; [25]) was ≥ 20 µM and the Kd (HLA-B*15:01 [5]; [25]) was ≥ 20 µM. For the same sequence, the Kd (HLA-A*02:01 [6]; [25]) was ≥ 20 µM, the Kd (HLA-A*24:02) was ≥ 20 µM and the Kd (HLA-B*58:01; [25]) was ≥ 20 µM.
With ILNSDDEQA the Kd (HLA-B*46:01 [7]; [26]) was ≥ 20 µM, the Kd (HLA-B*18:01 [8]; [26]) was ≥ 20 µM and the Kd (HLA-B*57:01 [9]; [26]) was ≥ 20 µM. The Kd (HLA-A*02:11 [10]; [26]) was 0.142 µM, the Kd (HLA-B*27:03; [26]) was ≥ 20 µM and the Kd (HLA-B*15:17; [26]) was ≥ 20 µM. The Kd (HLA-A*24:03; [26]) was ≥ 20 µM, the Kd (HLA-A*23:01 [11]) was ≥ 20 µM and the Kd (HLA-A*02:12 [12]) was ≥ 20 µM. For the same sequence, the Kd (HLA-A*69:01 [13]; [26]) was ≥ 20 µM, the Kd (HLA-B*51:01; [26]) was ≥ 20 µM and the Kd (HLA-A*02:19 [14]) was 1.63 µM. For the same sequence, the Kd (HLA-A*03:01 [15]) was ≥ 20 µM, the Kd (HLA-B*15:01 [16]) was ≥ 20 µM and the Kd (HLA-B*39:01; [26]) was ≥ 20 µM. For the same sequence, the Kd (HLA-A*26:01; [26]) was ≥ 20 µM and the Kd (HLA-A*29:02 [17]) was 0.644 µM.
With VRGGMVAPL the Kd (HLA-A*01:01; [27]) was ≥ 20 µM, the Kd (HLA-B*46:01 [1]; [27]) was ≥ 20 µM and the Kd (HLA-B*18:01 [2]; [27]) was ≥ 20 µM. The Kd (HLA-B*15:09; source organism: Yellow fever virus) was ≥ 20 µM, the Kd (HLA-B*57:01 [18]) was ≥ 20 µM and the Kd (HLA-A*11:01) was ≥ 20 µM. The Kd (HLA-B*40:01; [27]) was ≥ 20 µM, the Kd (HLA-B*27:05; [27]) was ≥ 20 µM and the Kd (HLA-A*31:01) was ≥ 20 µM. The Kd (HLA-A*69:01 [3]; [27]) was ≥ 20 µM, the Kd (HLA-A*03:01 [4]; [27]) was ≥ 20 µM and the Kd (HLA-B*44:02; [27]) was ≥ 20 µM. For the same sequence, the Kd (HLA-B*15:01 [5]; [27]) was ≥ 20 µM, the Kd (HLA-B*48:01) was ≥ 20 µM and the Kd (HLA-A*02:01 [6]; [27]) was ≥ 20 µM. The Kd (HLA-B*58:01; [27]) was ≥ 20 µM.
With VTPGPHAQI the Kd (HLA-A*02:11 [10]; [28]) was 0.0704 µM and the Kd (HLA-A*02:01 [19]; [28]) was 1.05 µM.
For LFPELECFF, the Kd (HLA-B*46:01 [7]; [29]) was ≥ 20 µM, the Kd (HLA-B*18:01 [8]; [29]) was ≥ 20 µM and the Kd (HLA-B*57:01 [9]; [29]) was ≥ 20 µM. The Kd (HLA-B*27:03; [29]) was ≥ 20 µM, the Kd (HLA-B*15:17; [29]) was ≥ 20 µM and the Kd (HLA-A*24:03; [29]) was 0.0008 µM. The Kd (HLA-A*69:01 [13]; [29]) was ≥ 20 µM, the Kd (HLA-B*51:01; [29]) was ≥ 20 µM and the Kd (HLA-A*02:01 [19]; [29]) was ≥ 20 µM. The Kd (HLA-B*39:01; [29]) was ≥ 20 µM, the Kd (HLA-A*26:01; [29]) was ≥ 20 µM and the Kd (HLA-A*02:16) was ≥ 20 µM. The Kd (HLA-A*02:11 [20]) was ≥ 20 µM, the Kd (HLA-A*23:01 [21]) was ≥ 20 µM and the Kd (HLA-A*02:03) was ≥ 20 µM. The Kd (HLA-A*02:12 [22]) was ≥ 20 µM, the Kd (HLA-A*02:19 [23]) was ≥ 20 µM and the Kd (HLA-A*03:01 [4]; source organism: Convict Creek 107 virus) was ≥ 20 µM. For the same sequence, the Kd (HLA-A*68:02) was ≥ 20 µM and the Kd (HLA-A*29:02 [24]) was ≥ 20 µM.
